A short description of the data set: yeast display, Sf9 membrane polyspecificity reagent, FACS + sequencing; frameworks hold sequencing errors. The gist of the method:
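Polyreactivity labels are assigned by the sorting gate from which each nanobody was recovered. The gates were low and high (top ~1%), set on anti-HA fluorescence for expression and streptavidin fluorescence for reagent binding. Before sorting, galactose-induced (36–48 hours) yeast display cells were stained for 1 hour at 4 °C with 10% biotinylated, detergent-solubilized Sf9 membrane reagent.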
“QVQLVESGGGLVQAGGSLRLSCAASGITFGDYAMGWYRQAPGKEMEMVAGINWSGDGTYYADSVKGRFTISRDNAKNTVYLQMNSLKPEDTAVYYCNARGIPLYSYRDYRFVVLNFDYWGQGTQVTVSS”: the “polyreactivity (PSR sort gate)” value is recorded as “low polyreactivity”.

Take “QVQLVESGGGLVQAGGSLRLSCAASGITFGDYAMGWYRQAPGKERELVAAISKRGGSTYYADSVKGRFTISRDNAKNTVYLQMNSLKPEDTAVYYCAADYYINAYYYWGQGTQVTVSS”: the “polyreactivity (PSR sort gate)” value is given as “high polyreactivity”. To “QVQLVESGGGLVQAGGSLRLSCAASGITFGDYAMGWYRQAPGKERELVAAISKRGGSTYYAESVKGRFTISRDNAKNTVYLQMNSRNPEDTAVYYCAADYYSKAYYYWGQGTQVTVSS” belongs “high polyreactivity”; to “QVQLVESGGGLVQAGGSLRLSCAASGITFGGNAMGWYRQAPGKERELVAAISGRGGRTYYADSVKGRFTISRDTAKNTVYLQMNSLKPEDTAVYYCAGGGRVRYDYWGQGTQVTVSS”, “low polyreactivity”; to “QVQLVESGGGLVQAGGSLRLSCAASGITFGGYALGWYRQAPGKEREFVAGISSSGRSTYYADSVKGRFTISRDNAKNTVYLQMYSLKPEDTAVYYCAVYRVRKVYVLRGPFYYWGQGTQVTVSS”, “high polyreactivity”. “QVQLVESGGGLVQAGGSLRLSCAASGITFGHYTMGWYRQAPGKERELVAAISWSGGSTYYADSVKGRFTISRDNAKNTVYLQMNSLKPEDTAVYYCNRVKPVIASYDSDYWGQGTQVTVSS”: the “polyreactivity (PSR sort gate)” value is “low polyreactivity”.

“QVQLVESGGGLVQAGGSLRLSCAASGITFGINAMGWYRQAPGKERELVAAITSGGSTYYADSVKGRFTISRDNAKNTVYLQMNSLKPEDTAVYDCAADYQYFVYCEYDYWGQGTQVTVSS”: the “polyreactivity (PSR sort gate)” value was “low polyreactivity”.

On to “QVQLVESGGGLVQAGGSLRLSCAASGITFGIYVMGWYRQAPGKERELVATISRSDDNTYYADSVKGRFTISRDNAKNTVYLQMNSLKPEDTAVYYCAADGVISAWYSSRDDYWGQGTQVTVSS”, for which the “polyreactivity (PSR sort gate)” value is listed as “low polyreactivity”. For the sequence “QVQLVESGGGLVQAGGSLRLSCAASGITFGKNALGWYRQAPGKERELVATIRRSGGSTYADSVKGRFTISRDNAKNTVYLQMNSLKPEDTAVYYCNARSWNTYNYWGQGTQVTVSS”, the “polyreactivity (PSR sort gate)” value is “high polyreactivity”. Turning to “QVQLVESGGGLVQAGGSLRLSCAASGITFGLYAMGWYRQAPGKEREFVAAISRRGGSTSYADSVKGRFTISRDNAKNTVYLQMNSLKPEDTAVYYCDTSYRRTVGGYTYYWGQGTQVTVSS”, the “polyreactivity (PSR sort gate)” value is “high polyreactivity”.

Consider “QVQLVESGGGLVQAGGSLRLSCAASGITFGRNAMGWYRQAPGKERELVAAISRGGSTNYADSVKGRFTISRDNAKNTVYLQMNSLKPEDTAVYYCNARSWPHGSWIPIHRRYGYWGQGTQVTVSS”, for which the “polyreactivity (PSR sort gate)” value is on record as “high polyreactivity”. Regarding “QVQLVESGGGLVQAGGSLRLSCAASGITFGRNTMGWYRPAPGKERELVAAIDSGGNTYADSVKGRFTISRDNAKNTVYLQMNSLKPEDTAVYYCAVDGGEFSSYGYWGQGTQVTVSS”, the “polyreactivity (PSR sort gate)” value is “low polyreactivity”. With “QVQLVESGGGLVQAGGSLRLSCAASGITFGRYAMGWYSQAPGKARELVASITVNGGRTYYADSVKGRFTISRDNAKNTVNLQMNSLKPEDTAVSYCAAERRNSYVLLFKYNYWGQGTQVTVSS” the entry was “low polyreactivity”; with “QVQLVESGGGLVQAGGSLRLSCAASGITFGSNAMGWYRQAPGKERELVAAISRSGGRTYYADSVKGRFTISRDNAKNTVSLQMNSLKPEDTAVYDCATDSYTTGEYWGQGTQVTVSS”, “high polyreactivity”; with “QVQLVESGGGLVQAGGSLRLSCAASGITFGSYAMGWYRQAPGKEREFVAAISLSGGNTYYADSVKGRFTISRDNAKNTVYLQMNSRKPEDTAVYYCAADYDYSGYGYWGQGTQVTVSS”, “high polyreactivity”. With “QVQLVESGGGLVQAGGSLRLSCAASGITFGTNAMGWYRQAPGKERELVAAITSGVSTYYADSVKGRFTISRDNAKNTVYLQMNSLIPEDTAVYYCAKDVAVYADLYQGDPYGYWGQGTLVTVSS”, the “polyreactivity (PSR sort gate)” value is “low polyreactivity”. With “QVQLVESGGGLVQAGGSLRLSCAASGITFGVNTMGWYRQAPGKERELVAAITWRGGSTYYADSVKGRFTISRDNAKNTVYLQMNSLKPEDTAVYYCAAPYDGPVLTVGYDYWGQGTQVTVSS”, the “polyreactivity (PSR sort gate)” value is reported as “low polyreactivity”.

With “QVQLVESGGGLVQAGGSLRLSCAASGITFGVNTMGWYRQAPGKERELVAAITWRGGSTYYADSVKGRFTISRDNAKNTVYLQMNSLKPEDTAVYYCAAVDFTREISGVTYGFDYCGQGTQVTVSS”, the “polyreactivity (PSR sort gate)” value was “low polyreactivity”. “QVQLVESGGGLVQAGGSLRLSCAASGITFGYNTMGWYRQAPGKERELVAAISGSGGRTYYADSVKGRFTISRDNAKNTVFLQMNSLKPEDTAVYYCAARWPIWSSLYDYWGQGTQVTVSS”: the “polyreactivity (PSR sort gate)” value is “high polyreactivity”.

For “QVQLVESGGGLVQAGGSLRLSCAASGITFGYYAMGRYRQAPGKERELVAAISNSGRTYYADSVKGRFTISRDNAKNTVYLQMNSLKPEDTAVYYCAVRISGNWYDYWGQGTQVTVSS”, the “polyreactivity (PSR sort gate)” value is “low polyreactivity”. To “QVQLVESGGGLVQAGGSLRLSCAASGITFGYYAMGWSRQAPGKERELVAAISSGGRTNYADSVKGRFTISRDNAKNTVYLQMISLKPEDTAVYYCAASTHHPGYPPDVLYDEYEYWGQGTQVTVSS” belongs “low polyreactivity”; to “QVQLVESGGGLVQAGGSLRLSCAASGITFGYYAMGWYRQAPGKERELVAAISNSGRTYYADSVKGRFTISRDNAKNTVYLQMNILKPEDTAVYYCAAEDAYYDFYYWGQGTKVTVSS”, “low polyreactivity”; to “QVQLVESGGGLVQAGGSLRLSCAASGITFHRNAMGWYRQAPGKERELVAAITRGGSTYYADSVKGRFTISRDNAKNTVYLQMNSLKPEDTAVYYCNAYYWFGPGRDYWGQGTQVTVSS”, “high polyreactivity”. In the case of “QVQLVESGGGLVQAGGSLRLSCAASGITFHSYAMGWYRQAPGKERELVAGISSGGSTNYADSVKGRFTISRDNAKNTVYLQMNSLKPEDTAVYYCNADTPFYEYDYWGQGTQVTVSS”, the “polyreactivity (PSR sort gate)” value is “low polyreactivity”.

Consider “QVQLVESGGGLVQAGGSLRLSCAASGITFIGYVMGWYRQAPGKERELVAAISRSGASTYYADSVKGRFTISRDNAKNTVYLQMNSLKPEDTAVYYSATVRYHPAYYYWGQGTQVTVSS”, for which the “polyreactivity (PSR sort gate)” value is listed as “high polyreactivity”.

For the sequence “QVQLVESGGGLVQAGGSLRLSCAASGITFIRNGMGWYRQAPGKERELVAAISDTGARTYYADSVKGRFTISRDNAKNTVYLQMNSLKPEDTAVYYCAAEVRTRYLYSFRWYDYWGQGTQVTVSS”, the “polyreactivity (PSR sort gate)” value is given as “low polyreactivity”.

Turning to “QVQLVESGGGLVQAGGSLRLSCAASGITFKPNTMGWYRQAPGKERELVAAIDWSGSSTYYADSVKGRFTISRDNAKNTVYLHMNSLKPEDTAVYYCAADEYEYFWSYDYWGQGTQVTVSS”, the “polyreactivity (PSR sort gate)” value is listed as “low polyreactivity”. For the sequence “QVQLVESGGGLVQAGGSLRLSCAASGITFKPNTMGWYRQAPGKERELVAAIDWSGSSTYYADSVKGRFTISRDNAKNTVYLQMISLKPEDTAVYYCAADDYEYFWSYDYWGQGTQVTVSS”, the “polyreactivity (PSR sort gate)” value was “low polyreactivity”. As for “QVQLVESGGGLVQAGGSLRLSCAASGITFKRYAMGWYRQAPGKERELVAAITWRGARTYYADSVKGRFTISRDNAKNTVYLQMNSLKPEDTAVYYCAADGYSGSGPYDYWGQGTQVTVSS”, the “polyreactivity (PSR sort gate)” value is “high polyreactivity”. As to “QVQLVESGGGLVQAGGSLRLSCAASGITFKRYAMGWYRQAPGKEREMVAAITGIGGSTYYADSVKGRFTISRDNAMNTVYLQMNSLKPEDTAVYYCAARNNKKYDYWGQGTQVTVSS”, the “polyreactivity (PSR sort gate)” value is “high polyreactivity”.

These data come from the nanobody polyreactivity screen of Harvey et al. (2022).
